Source: PMC8130709, “Structure and activation mechanism of the human liver-type glutaminase GLS2” (Biochimie, 2021)
Substitutions are numbered along the chain they refer to. In names and notes the source's numbering stands. Several values for one entry are separate records, joined by “and”; a condition that tells them apart may be missing. Equal values may be shown once.

B1: Mouse GLS2 (Leu72-Val602) (enzyme, UniProt Q571F8 72-602, looked up)
chain: LGDLLFYTIAEGQERIPIHKFTTALKATGLQTSDPRLQDCMSKMQRMVQESSSGGLLDRELFQKCVSSNIVLLTQAFRKKFVIPDFEEFTGHVDRIFEDAKEPTGGKVAAYIPHLAKSNPDLWGVSLCTVDGQRHSVGHTKIPFCLQSCVKPLTYAISVSTLGTDYVHKFVGKEPSGLRYNKLSLNEEGIPHNPMVNAGAIVVSSLIKMDCNKAEKFDFVLQYLNKMAGNEFMGFSNATFQSEKETGDRNYAIGYYLKEKKCFPKGVDMMAALDLYFQLCSVEVTCESGSVMAATLANGGICPITGESVLSAEAVRNTLSLMHSCGMYDFSGQFAFHVGLPAKSAVSGAILLVVPNVMGMMCLSPPLDKLGNSQRGINFCQKLVSLFNFHNYDNLRHCARKLDPRREGGEVRNKTVVNLLFAAYSGDVSALRRFALSAMDMEQKDYDSRTALHVAAAEGHIEVVKFLIEACKVNPFVKDRWGNIPLDDAVQFNHLEVVKLLQDYHDSYLLSETQAEAAAETLSKENLESMV
notes: liver-type glutaminase GLS2, mouse, residues Leu72-Val602; also called liver-type glutaminase; wild type; source: recombinant, purified
B2: Mouse GLS2 (Leu72-Val602) Lys253Ala mutant (enzyme, UniProt Q571F8 72-602, looked up)
chain: B1 chain with K182A
notes: also called K253A; source: recombinant, purified; point mutant generated by PCR (QuickChange II XL)
B3: Human GLS2 glutaminase domain (Ile154-Gly479) (domain or fragment, UniProt Q9UI32-1 154-479, looked up)
chain: IPDFEEFTGHVDRIFEDVKELTGGKVAAYIPQLAKSNPDLWGVSLCTVDGQRHSVGHTKIPFCLQSCVKPLTYAISISTLGTDYVHKFVGKEPSGLRYNKLSLNEEGIPHNPMVNAGAIVVSSLIKMDCNKAEKFDFVLQYLNKMAGNEYMGFSNATFQSEKETGDRNYAIGYYLKEKKCFPKGVDMMAALDLYFQLCSVEVTCESGSVMAATLANGGICPITGESVLSAEAVRNTLSLMHSCGMYDFSGQFAFHVGLPAKSAVSGAILLVVPNVMGMMCLSPPLDKLGNSHRGTSFCQKLVSLFNFHNYDNLRHCARKLDPRREG
notes: liver-type glutaminase GLS2, human, glutaminase (catalytic) domain, residues Ile154-Gly479, common to the LGA and GAB isoforms; Cloned into pNIC28-Bsa4; also called human GLS2 catalytic domain construct; source: E. coli BL21(DE3)-R3-pRARE2, purified (Ni-NTA, Superdex 200 gel filtration, HiTrap Q HP)

How the values were obtained:
[1] = biological target: the molecule itself; experiment: SEC; analytical gel filtration of serial dilutions of the protein, in the absence of phosphate; Stokes radius against protein concentration
[2] = biological target: the molecule itself; experiment: crystal structure; ligand-free, sitting drop at 293 K, 0.1 M Tris pH 8.5, 0.2 M NaCl, 25% PEG 3350; space group H 3 2, two monomers in the asymmetric unit, tetramer generated by crystal symmetry

| Protein | stoichiometry N [1] | stoichiometry N [2] |
| --- | --- | --- |
| B1 | 2 and 4 |  |
| B2 | 4 |  |
| B3 |  | 4 |
